What was measured:
[1] = target: T1, recombinant human GM-CSF protein (human, UniProt P04141 18-144); test: cell-based or functional assay
[2] = target: T1, recombinant human GM-CSF protein; test: ELISA, human GM-CSF coated at 1 µg/ml
Experimental: (§1) Recombinant human or rhesus GM-CSF protein (Genscript) was coated at 1 μg/ml in PBS onto microtiter plates for 2 h at room temperature (RT). After coating of antigen the wells were blocked with PBS/0.05% Tween (PBST) with 1% BSA for 1 h at RT. After washing of the wells with PBST, different concentrations of anti-GM-CSF antibodies were added to the well and incubated for 1 at RT. For detection of the binding antibodies, the HRP-conjugated secondary antibodies against mouse Fc (Jackson Immuno Research) were added, followed by the addition of fluorogenic substrates (Roche). Between all incubation steps, the wells of the plate were washed with PBST three times. Fluorescence was measured in a TECAN Spectrafluor plate reader.

[3] = target: T2, recombinant rhesus GM-CSF protein (rhesus, UniProt Q9GL44 18-144); test: ELISA, rhesus GM-CSF coated at 1 µg/ml
T2 construct: Bought recombinant protein (Genscript)
Experimental: as §1

[4] = target: T1, recombinant human GM-CSF protein; test: SPR Biacore T200, antibody captured by anti-mouse Fc, GM-CSF as analyte, 25 C, 1:1 model
Experimental: FIG. 4 plots the binding kinetics of 23F4 and 50C5 with recombinant human GM-CSF. […] The binding kinetics assay of antibody to antigen was performed using Biacore T200 system through a mouse antibody capture approach. The anti-mouse Fc IgG were immobilized on CMS sensor chip according to the manufacturer's instruction. The test antibody was injected and captured by the immobilized anti-mouse Fc IgG. And then serial concentrations of the antigen were individually injected, and the binding profile was recorded for each concentration of antigen analyte, respectively. The assay system was regenerated by injection of 10 mM Glycine-HCL pH 1.5 for 30 seconds. The running buffer was HBS-EP+ (10 mM HEPES, pH 7.4, 150 mM NaCl, 3 mM EDTA and 0.05% P20). The assay temperature was 25° C., and the association and dissociation time were 180 and 600 seconds, respectively.

[5] = target: T1, recombinant human GM-CSF protein; test: competition ELISA: antibody titrated with biotinylated human GM-CSF (0.05 ug/ml) on coated human GM-CSF receptor alpha (CD116); signal is GM-CSF bound to the receptor
Experimental: After coating of antigen the wells were blocked with PBS/0.05% Tween (PBST) with 1% BSA for 1 h at RT. After washing of the wells with PBST, different concentrations of anti-GM-CSF antibodies were added to the well in the presence of biotinylated human GM-CSF protein (0.05 μg/ml) and incubated for 1 hr at RT.
For detection of the binding of biotinylated GM-CSF to the coated receptor, the HRP-conjugated Streptavidin was added, followed by the addition of fluorogenic substrates (Roche). Between all incubation steps, the wells of the plate were washed with PBST three times. Fluorescence was measured in a TECAN Spectrafluor plate reader.

T1 sequence (P04141 18-144 limits assumed): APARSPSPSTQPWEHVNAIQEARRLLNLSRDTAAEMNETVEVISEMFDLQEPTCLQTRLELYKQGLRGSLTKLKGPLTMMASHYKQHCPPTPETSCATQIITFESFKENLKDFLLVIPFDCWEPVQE
T2 sequence (Q9GL44 entry or part of it limits assumed): as the sequence (P04141 18-144 limits assumed) above, with S9G, E38K, I43V, T53S, R67Q, E104Q counted along it

Row | IC50 in the inhibition of TF-1 proliferation [1] | EC50 [2] | EC50 [3] | Kd [4] | koff [4] | kon [4] | IC50 (read off the curve) [5] | Binder
1 | ~0.0109 µg/mL | 0.0146 µg/mL | 0.0217 µg/mL | 0.0443 nM | 0.00012 s⁻¹ | 2.72e+06 M⁻¹ s⁻¹ |  | 50C5 (antibody, V domains shown, Mouse monoclonal antibody from a hybridoma; also called 5005 (misprint of 50C5); murine antibody 50C5) VH: QVQLQQSAAELVRPGASVKMSCKASGYIFTPYSIHWIKQRPGQGLEWIGYINPSTGYIEYNQHFKDRTTLTADKSSSTAYMQLRSLTSEDSAVYYCARGGDYEGYFDYWGQGTTLTVSS VL: DIQMTQSPDSLSASVGETVTITCRLNENIYSFLAWYQQRQGKSPQLLVYNAETLAEDVPSRFSGSGSGTQFSLKISSLQTDDFGTYYCQQHYGTPYTFGGGTNLEIE
2 | ~0.0109 µg/mL | 0.0118 µg/mL | 0.0102 µg/mL | 0.0417 nM | 3.64e-05 s⁻¹ | 872000 M⁻¹ s⁻¹ | ~1 µg/mL | 23F4 (antibody, V domains shown, Mouse monoclonal antibody from a hybridoma; also called 23F4 antibody; murine antibody 23F4) VH: QVQLQQSGPELVKPGTSMKISCKTSDYTLTSHYLHWVKQRPGQGLEWIGWIFPGDDKTKYNEKFKGKATLTSDKTSNTAYMQLSSLTSEESAVYFCARGTKYLNWNFDVWGTGTTVTVSS VL: DIVLTQPQKFLSTSVGDRVSVTCKANQNVGTTLAWYQQKPGQSPKALIYSASYRYSGVPDRFTGSGSGTDFTLTISNVQSEDLAEYFCHQYTTYPLTFGGGTKLEIK

From US20190002549A1 (I MAB BIOPHARMA, published 2019)
